Assay results: the Human Domainome abundance scans (Beltran et al. 2025)
± gives the uncertainty stated by the source.

Assay: abundance fitness (aPCA) (normalised: wild type 0, dead -1); higher = more abundant; growth selection in yeast, the domain comes from the species named
Conditions: Homo sapiens
Work on “NEDD4-like E3 ubiquitin-protein ligase WWP2 G489A, O00308” yielded an abundance fitness of -0.007 ± 0.041. In the case of “NEDD4-like E3 ubiquitin-protein ligase WWP2 G489C, O00308”, the abundance fitness is reported as -0.066 ± 0.031. “NEDD4-like E3 ubiquitin-protein ligase WWP2 G489D, O00308” gave an abundance fitness of -0.02 ± 0.053. In the case of “NEDD4-like E3 ubiquitin-protein ligase WWP2 G489E, O00308”, the abundance fitness is reported as 0.04 ± 0.049. For “NEDD4-like E3 ubiquitin-protein ligase WWP2 G489F, O00308”, the abundance fitness was -0.028 ± 0.078. Substance “NEDD4-like E3 ubiquitin-protein ligase WWP2 G489H, O00308” has an abundance fitness of -0.155 ± 0.078. In the case of “NEDD4-like E3 ubiquitin-protein ligase WWP2 G489I, O00308”, the abundance fitness is reported as -0.035 ± 0.078. For “NEDD4-like E3 ubiquitin-protein ligase WWP2 G489K, O00308”, the abundance fitness was 0.001 ± 0.069. With “NEDD4-like E3 ubiquitin-protein ligase WWP2 G489L, O00308” the abundance fitness was -0.039 ± 0.055. Substance “NEDD4-like E3 ubiquitin-protein ligase WWP2 G489M, O00308” has an abundance fitness of -0.048 ± 0.07. Work on “NEDD4-like E3 ubiquitin-protein ligase WWP2 G489N, O00308” yielded an abundance fitness of -0.008 ± 0.033. For “NEDD4-like E3 ubiquitin-protein ligase WWP2 G489P, O00308”, the abundance fitness was -0.049 ± 0.041. Work on “NEDD4-like E3 ubiquitin-protein ligase WWP2 G489Q, O00308” yielded an abundance fitness of -0.157 ± 0.077. For “NEDD4-like E3 ubiquitin-protein ligase WWP2 G489R, O00308”, the abundance fitness was -0.035 ± 0.036. “NEDD4-like E3 ubiquitin-protein ligase WWP2 G489S, O00308” gave an abundance fitness of 0.039 ± 0.05. “NEDD4-like E3 ubiquitin-protein ligase WWP2 G489T, O00308” gave an abundance fitness of 0.002 ± 0.066. For “NEDD4-like E3 ubiquitin-protein ligase WWP2 G489V, O00308”, the abundance fitness was -0.031 ± 0.048. In the case of “NEDD4-like E3 ubiquitin-protein ligase WWP2 G489W, O00308”, the abundance fitness is reported as -0.163 ± 0.057. Work on “NEDD4-like E3 ubiquitin-protein ligase WWP2 G489Y, O00308” yielded an abundance fitness of -0.334 ± 0.087. “NEDD4-like E3 ubiquitin-protein ligase WWP2 H465A, O00308” gave an abundance fitness of -0.378 ± 0.05. “NEDD4-like E3 ubiquitin-protein ligase WWP2 H465C, O00308” gave an abundance fitness of -0.411 ± 0.067. “NEDD4-like E3 ubiquitin-protein ligase WWP2 H465D, O00308” gave an abundance fitness of -0.461 ± 0.06. “NEDD4-like E3 ubiquitin-protein ligase WWP2 H465E, O00308” showed an abundance fitness of -0.396 ± 0.062. With “NEDD4-like E3 ubiquitin-protein ligase WWP2 H465I, O00308” the abundance fitness was -0.207 ± 0.08. Substance “NEDD4-like E3 ubiquitin-protein ligase WWP2 H465K, O00308” has an abundance fitness of -0.216 ± 0.064. In the case of “NEDD4-like E3 ubiquitin-protein ligase WWP2 H465L, O00308”, the abundance fitness is reported as -0.315 ± 0.045. “NEDD4-like E3 ubiquitin-protein ligase WWP2 H465M, O00308” showed an abundance fitness of -0.357 ± 0.072. “NEDD4-like E3 ubiquitin-protein ligase WWP2 H465N, O00308” gave an abundance fitness of -0.208 ± 0.086. Work on “NEDD4-like E3 ubiquitin-protein ligase WWP2 H465P, O00308” yielded an abundance fitness of -0.556 ± 0.088. In the case of “NEDD4-like E3 ubiquitin-protein ligase WWP2 H465Q, O00308”, the abundance fitness is reported as -0.332 ± 0.042. Work on “NEDD4-like E3 ubiquitin-protein ligase WWP2 H465R, O00308” yielded an abundance fitness of -0.278 ± 0.036. “NEDD4-like E3 ubiquitin-protein ligase WWP2 H465S, O00308” showed an abundance fitness of -0.247 ± 0.034. For “NEDD4-like E3 ubiquitin-protein ligase WWP2 H465T, O00308”, the abundance fitness was -0.292 ± 0.061. In the case of “NEDD4-like E3 ubiquitin-protein ligase WWP2 H465V, O00308”, the abundance fitness is reported as -0.357 ± 0.05. Substance “NEDD4-like E3 ubiquitin-protein ligase WWP2 H465W, O00308” has an abundance fitness of -0.422 ± 0.042. Substance “NEDD4-like E3 ubiquitin-protein ligase WWP2 H465Y, O00308” has an abundance fitness of -0.386 ± 0.064. Substance “NEDD4-like E3 ubiquitin-protein ligase WWP2 I441A, O00308” has an abundance fitness of -0.113 ± 0.053. In the case of “NEDD4-like E3 ubiquitin-protein ligase WWP2 I441C, O00308”, the abundance fitness is reported as -0.166 ± 0.078. Substance “NEDD4-like E3 ubiquitin-protein ligase WWP2 I441D, O00308” has an abundance fitness of -0.419 ± 0.14. In the case of “NEDD4-like E3 ubiquitin-protein ligase WWP2 I441F, O00308”, the abundance fitness is reported as -0.13 ± 0.059. For “NEDD4-like E3 ubiquitin-protein ligase WWP2 I441H, O00308”, the abundance fitness was -0.204 ± 0.065. Substance “NEDD4-like E3 ubiquitin-protein ligase WWP2 I441K, O00308” has an abundance fitness of 0.052 ± 0.04. “NEDD4-like E3 ubiquitin-protein ligase WWP2 I441L, O00308” gave an abundance fitness of -0.198 ± 0.054. For “NEDD4-like E3 ubiquitin-protein ligase WWP2 I441N, O00308”, the abundance fitness was 0.137 ± 0.071. In the case of “NEDD4-like E3 ubiquitin-protein ligase WWP2 I441P, O00308”, the abundance fitness is reported as -0.503 ± 0.083. With “NEDD4-like E3 ubiquitin-protein ligase WWP2 I441Q, O00308” the abundance fitness was -0.035 ± 0.068. For “NEDD4-like E3 ubiquitin-protein ligase WWP2 I441S, O00308”, the abundance fitness was -0.123 ± 0.044. “NEDD4-like E3 ubiquitin-protein ligase WWP2 I441T, O00308” gave an abundance fitness of 0.009 ± 0.04. In the case of “NEDD4-like E3 ubiquitin-protein ligase WWP2 I441V, O00308”, the abundance fitness is reported as -0.14 ± 0.048. “NEDD4-like E3 ubiquitin-protein ligase WWP2 I441W, O00308” showed an abundance fitness of -0.297 ± 0.067. Work on “NEDD4-like E3 ubiquitin-protein ligase WWP2 I441Y, O00308” yielded an abundance fitness of -0.33 ± 0.11. In the case of “NEDD4-like E3 ubiquitin-protein ligase WWP2 K453A, O00308”, the abundance fitness is reported as 0.037 ± 0.046. Substance “NEDD4-like E3 ubiquitin-protein ligase WWP2 K453C, O00308” has an abundance fitness of -0.226 ± 0.079. For “NEDD4-like E3 ubiquitin-protein ligase WWP2 K453D, O00308”, the abundance fitness was -0.029 ± 0.067. In the case of “NEDD4-like E3 ubiquitin-protein ligase WWP2 K453E, O00308”, the abundance fitness is reported as -0.23 ± 0.058. “NEDD4-like E3 ubiquitin-protein ligase WWP2 K453F, O00308” showed an abundance fitness of -0.006 ± 0.075. With “NEDD4-like E3 ubiquitin-protein ligase WWP2 K453G, O00308” the abundance fitness was -0.328 ± 0.052. For “NEDD4-like E3 ubiquitin-protein ligase WWP2 K453H, O00308”, the abundance fitness was -0.137 ± 0.047. Work on “NEDD4-like E3 ubiquitin-protein ligase WWP2 K453I, O00308” yielded an abundance fitness of -0.167 ± 0.053. Work on “NEDD4-like E3 ubiquitin-protein ligase WWP2 K453L, O00308” yielded an abundance fitness of 0.034 ± 0.038. For “NEDD4-like E3 ubiquitin-protein ligase WWP2 K453M, O00308”, the abundance fitness was -0.006 ± 0.05. “NEDD4-like E3 ubiquitin-protein ligase WWP2 K453N, O00308” showed an abundance fitness of -0.316 ± 0.063. Work on “NEDD4-like E3 ubiquitin-protein ligase WWP2 K453P, O00308” yielded an abundance fitness of -1.01 ± 0.12. For “NEDD4-like E3 ubiquitin-protein ligase WWP2 K453R, O00308”, the abundance fitness was -0.043 ± 0.045. In the case of “NEDD4-like E3 ubiquitin-protein ligase WWP2 K453S, O00308”, the abundance fitness is reported as -0.183 ± 0.042. With “NEDD4-like E3 ubiquitin-protein ligase WWP2 K453T, O00308” the abundance fitness was -0.128 ± 0.056. “NEDD4-like E3 ubiquitin-protein ligase WWP2 K453V, O00308” showed an abundance fitness of -0.063 ± 0.05. “NEDD4-like E3 ubiquitin-protein ligase WWP2 K453W, O00308” showed an abundance fitness of -0.013 ± 0.059. “NEDD4-like E3 ubiquitin-protein ligase WWP2 K453Y, O00308” showed an abundance fitness of -0.153 ± 0.042. “NEDD4-like E3 ubiquitin-protein ligase WWP2 K473A, O00308” gave an abundance fitness of -0.111 ± 0.045. With “NEDD4-like E3 ubiquitin-protein ligase WWP2 K473C, O00308” the abundance fitness was -0.003 ± 0.066. For “NEDD4-like E3 ubiquitin-protein ligase WWP2 K473E, O00308”, the abundance fitness was -0.059 ± 0.035. With “NEDD4-like E3 ubiquitin-protein ligase WWP2 K473F, O00308” the abundance fitness was 0.102 ± 0.082. In the case of “NEDD4-like E3 ubiquitin-protein ligase WWP2 K473H, O00308”, the abundance fitness is reported as -0.1 ± 0.055. “NEDD4-like E3 ubiquitin-protein ligase WWP2 K473I, O00308” gave an abundance fitness of 0.028 ± 0.07. “NEDD4-like E3 ubiquitin-protein ligase WWP2 K473L, O00308” showed an abundance fitness of -0.165 ± 0.058. With “NEDD4-like E3 ubiquitin-protein ligase WWP2 K473M, O00308” the abundance fitness was 0.093 ± 0.08. Work on “NEDD4-like E3 ubiquitin-protein ligase WWP2 K473N, O00308” yielded an abundance fitness of -0.402 ± 0.095. “NEDD4-like E3 ubiquitin-protein ligase WWP2 K473P, O00308” showed an abundance fitness of -1.11 ± 0.12. Work on “NEDD4-like E3 ubiquitin-protein ligase WWP2 K473Q, O00308” yielded an abundance fitness of -0.091 ± 0.082. “NEDD4-like E3 ubiquitin-protein ligase WWP2 K473R, O00308” gave an abundance fitness of -0.081 ± 0.055. “NEDD4-like E3 ubiquitin-protein ligase WWP2 K473S, O00308” showed an abundance fitness of -0.128 ± 0.055. With “NEDD4-like E3 ubiquitin-protein ligase WWP2 K473T, O00308” the abundance fitness was -0.097 ± 0.066. In the case of “NEDD4-like E3 ubiquitin-protein ligase WWP2 K473V, O00308”, the abundance fitness is reported as 0.112 ± 0.041. For “NEDD4-like E3 ubiquitin-protein ligase WWP2 K473W, O00308”, the abundance fitness was -0.026 ± 0.075. “NEDD4-like E3 ubiquitin-protein ligase WWP2 K473Y, O00308” showed an abundance fitness of 0.087 ± 0.071. Substance “NEDD4-like E3 ubiquitin-protein ligase WWP2 K484A, O00308” has an abundance fitness of -0.073 ± 0.058. Work on “NEDD4-like E3 ubiquitin-protein ligase WWP2 K484C, O00308” yielded an abundance fitness of -0.033 ± 0.055.
